Reference: article PMC6685639

Target: GST-PfPP1c (P. falciparum)

| Substance | pNPP dephosphorylation activity of recombinant PfPP1c (40 pmol, without GST) pre-incubated 30 min at 37°C with different amounts of PbGEXP15 (4–178); concentration-dependent increase [fold] | pNPP dephosphorylation activity of recombinant PfPP1c (40 pmol, without GST) pre-incubated 30 min at 37°C with different amounts of PbGEXP15 (4–590); concentration-dependent increase [fold] |
| --- | --- | --- |
| 6-His PbGEXP15 (4–178) (domain or fragment) | 2 |  |
| 6-His PbGEXP15 (4–590) (domain or fragment) |  | 2 |
